Source: the supplement of paper PMC9732359
± gives the uncertainty stated by the source.

Assay: protein stability index of a GFP-peptide fusion (yeast GPS) (PSI 1-4); higher = more stable; sorted into four equal gates, so the index is relative within each strain
In short: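 Yeast carrying a pooled library were grown to mid-log phase in leucine-free medium. Each library plasmid expresses Cherry and has a tiled 17-residue yeast protein peptide fused downstream of GFP. Cells were sorted into four equal gates by GFP/Cherry ratio, and plasmids from each gate were PCR-amplified, Illumina-sequenced and assigned to strains by barcode. Summing, across gates, the read frequency times the gate number gave each peptide's protein stability index.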

| Sequence | protein stability index (doa10∆) | protein stability index (pdr5∆) | protein stability index (san1∆) | protein stability index (ubr1∆) |
| --- | --- | --- | --- | --- |
| LTSPAFGPHVDVNDVLT [GRR1] | 3.4 ± 0.085 | 3.23 ± 0.062 | 3.35 ± 0.063 | 3.27 ± 0.056 |
| DKYKLYPVRIPRLDTSK [YJR042W/NUP85] | 3.01 ± 0.075 | 2.9 ± 0.075 | 3.12 ± 0.059 | 3.24 ± 0.065 |
| LNSFVNDIFERIATEAS [HTB1] | 2.95 ± 0.11 | 2.89 ± 0.091 | 2.63 ± 0.1 | 2.96 ± 0.061 |
| DTKSVVGLVMFSQFWYW [RPN2] | 2.35 ± 0.06 | 2.3 ± 0.062 | 2.61 ± 0.097 | 2.52 ± 0.04 |
| EIPTQIYRTTRQDGSYT [ARP9] | 2.94 ± 0.081 | 3.17 ± 0.086 | 2.93 ± 0.083 | 3.06 ± 0.059 |
| DIAFVLNNLPYKNEDVT [YCS4] | 2.61 ± 0.053 | 3.08 ± 0.051 | 2.94 ± 0.037 | 3 ± 0.065 |
| AKRHRKILRDNIQGITK [HHF1] | 3.01 ± 0.094 | 3.44 ± 0.098 | 3.21 ± 0.058 | 3.07 ± 0.069 |
| NDLGKFIPNKQLNCVID [RPN7] | 2.49 ± 0.13 | 2.85 ± 0.19 | 2.77 ± 0.17 | 3.05 ± 0.19 |
| LKKLKAMNDACYEKVLE [BRR2] | 3.18 ± 0.074 | 3.26 ± 0.061 | 3.12 ± 0.039 | 3.05 ± 0.058 |
| GTNKDMILKLVCQVTKF [ECM29] | 1.55 ± 0.058 | 1.26 ± 0.037 | 1.28 ± 0.13 | 1.59 ± 0.077 |
| FSEGTSADREIQRTLME [RPT4] | 3.41 ± 0.14 | 3.46 ± 0.084 | 3.29 ± 0.091 | 3.1 ± 0.087 |
| LGNSIVKESNNYYSNKS [REC8] | 2.68 ± 0.15 |  | 2.94 ± 0.3 |  |
| KRKYLDIPIDEMTLPTS [SSN2] | 3.1 ± 0.24 | 2.81 ± 0.15 | 2.77 ± 0.19 | 3.21 ± 0.23 |
| KLNTFENDLLQEFDSEL [SMC3] | 3.22 ± 0.13 | 3.3 ± 0.11 | 3.03 ± 0.1 | 2.78 ± 0.1 |
| FLLVPSKQVQVSQQPLS [ECM29] | 1.81 ± 0.092 | 1.92 ± 0.072 | 1.42 ± 0.11 | 2.17 ± 0.043 |
| GQRPDRATTYEKLTMVF [SIN4] | 1.27 ± 0.087 | 1.48 ± 0.067 | 1.53 ± 0.19 | 1.14 ± 0.11 |
| LPTNPTLDKPNAEATKE [CSE2] | 2.91 ± 0.072 | 2.87 ± 0.062 | 2.89 ± 0.046 | 2.85 ± 0.066 |
| LNENARELEQIKPKIAL [SNF12] | 3.23 ± 0.3 | 3 ± 0.23 | 2.64 ± 0.25 |  |
| LNVTPSKRPQLGEIPNP [SIR4] | 2.54 ± 0.072 | 2.83 ± 0.066 | 2.66 ± 0.075 | 2.88 ± 0.063 |
| FGNKPAGSTGFSFGQNN [YGR119C/NUP57] | 1.75 ± 0.089 | 1.77 ± 0.085 | 1.46 ± 0.15 | 1.29 ± 0.28 |
| KKVQALQSDKNFLDNCL [ITC1] | 3.13 ± 0.084 | 2.83 ± 0.05 | 2.83 ± 0.046 | 3.05 ± 0.036 |
| DNNNGDDDDEDDDEIVM [SKP1] | 3.04 ± 0.065 | 2.93 ± 0.052 | 2.89 ± 0.04 | 2.99 ± 0.048 |
| EFLINEGTPINNVYFAA [RPN14] | 2.33 ± 0.07 | 2.17 ± 0.052 | 1.91 ± 0.087 | 1.94 ± 0.047 |
| GRSHTRNSTRSSGFNED [REC8] |  | 3.55 ± 0.23 |  |  |
| NIWGTVRTNRFDIIEES [ECM29] | 2.23 ± 0.23 | 3.35 ± 0.12 | 2.54 ± 0.11 | 2.98 ± 0.12 |

| Sequence | protein stability index (doa10∆) | protein stability index (pdr5∆) | protein stability index (san1∆) | protein stability index (ubr1∆) |
| --- | --- | --- | --- | --- |
| DDDERVEYNLFTNRSTM [BRN1] | 2.97 ± 0.12 | 3.2 ± 0.12 | 3.11 ± 0.07 | 3.1 ± 0.068 |
| LKNVNKRAFENFKKFNE [SMC3] | 2.23 ± 0.086 | 1.95 ± 0.15 | 1.91 ± 0.094 | 1.88 ± 0.09 |
| NTQPSASGFGFGGSQPN [YGR119C/NUP57] | 3.18 ± 0.18 | 2.72 ± 0.15 | 2.84 ± 0.12 | 2.77 ± 0.13 |
| PKALRFDRLVAGQIPTG [FAS2] | 2.15 ± 0.18 |  | 2.59 ± 0.25 |  |
| NVEESVSKADILLSHHR [POP5] | 3.16 ± 0.19 |  | 2.91 ± 0.086 | 3.03 ± 0.1 |
| LAKPVFHVGFIAKIKKV [RPO21] | 1.21 ± 0.053 | 2.15 ± 0.067 | 1.78 ± 0.073 | 2.02 ± 0.06 |
| MTDMQIQWYKSLLEKDI [ISW2] | 1.84 ± 0.058 | 2.35 ± 0.062 | 1.74 ± 0.092 | 2.78 ± 0.061 |
| KRVVVPQALRVLRLKPG [RPL16A] | 3.05 ± 0.087 | 3.11 ± 0.1 | 3.15 ± 0.056 | 2.09 ± 0.12 |
| INLNVDDDILIIRPILG [SRB4] | 3.42 ± 0.15 | 3.07 ± 0.1 | 3.21 ± 0.059 | 3.21 ± 0.057 |
| VGKQIVNIPSFMVRLDS [RPS9A] | 2.59 ± 0.099 | 2.69 ± 0.12 | 2.42 ± 0.18 | 2.62 ± 0.096 |
| LYQLVDIRDSSCQGNVI [YMR129W/POM152] | 3.02 ± 0.1 | 3.12 ± 0.089 | 2.86 ± 0.058 | 2.96 ± 0.048 |
| FGQKGGQAIVVHPDYLY [FAS2] | 1.86 ± 0.046 | 1.62 ± 0.04 | 1.99 ± 0.06 | 1.68 ± 0.049 |
| LEGEEIKSEEKKGKSSD [RPN1] | 2.19 ± 0.077 | 2.17 ± 0.07 | 3.05 ± 0.084 | 2.4 ± 0.043 |
| VPPTIAQFQYTLDRNTA [RPL8A] | 1.83 ± 0.06 | 2.06 ± 0.048 | 1.64 ± 0.095 | 1.68 ± 0.044 |
| KDYHTLANNVESKLRDD [RPS18A] | 3.29 ± 0.14 | 3.48 ± 0.15 | 3.39 ± 0.11 | 3.33 ± 0.088 |
| TITDLIEQGIPKHSYLS [SIR4] | 3.05 ± 0.059 | 3.16 ± 0.06 | 3.21 ± 0.073 | 3.17 ± 0.043 |
| IIDAKTRNEQTTIQTEK [MCD1] | 3.19 ± 0.093 | 3.23 ± 0.082 | 2.91 ± 0.17 | 3.01 ± 0.06 |
| EILGINLANEQPVLEKP [SIR4] | 3 ± 0.068 | 3.2 ± 0.052 | 3.21 ± 0.045 | 3.11 ± 0.046 |
| EKLYIFYKLNMPDEFNT [SRP72] | 2.13 ± 0.043 | 1.96 ± 0.053 | 1.91 ± 0.078 | 1.6 ± 0.041 |
| FLNHAFDYMNRYWVQKE [CDC53] | 2.1 ± 0.056 | 2.48 ± 0.056 | 1.89 ± 0.067 | 1.94 ± 0.046 |
| MTPVIEKIAAGYMQKPV [PRP28] | 2.16 ± 0.11 | 1.93 ± 0.11 | 1.83 ± 0.14 | 2.68 ± 0.075 |
| TIFKSGEIDFIKNIGKS [YML103C/NUP188] | 1.64 ± 0.069 | 2.37 ± 0.061 | 1.92 ± 0.12 | 2.51 ± 0.073 |
| DLSRNGRNGSNGNDESS [NUT1] | 3.19 ± 0.078 | 3.33 ± 0.09 | 3.18 ± 0.059 | 3.14 ± 0.068 |
| LQMRLKESEISHNENKM [YIL149C/MLP2] | 2.94 ± 0.065 | 2.96 ± 0.068 | 3.18 ± 0.068 | 3.18 ± 0.09 |
| FSERAAMFAALQQKQQQ [SWI1] | 1.7 ± 0.042 | 2.15 ± 0.042 | 2.05 ± 0.078 | 2.01 ± 0.027 |
